# Source: US20260250421A1 (BIOCYTOGEN PHARMACEUTICALS BEIJING, published 2026)
# Residue numbers refer to the chain shown, from its start.
# T1: His-tagged human PTK7 protein (human, UniProt Q13308 31-704)
# T1 construct: Bought protein; also called hPTK7-His; not shown: His tag
# T1 sequence: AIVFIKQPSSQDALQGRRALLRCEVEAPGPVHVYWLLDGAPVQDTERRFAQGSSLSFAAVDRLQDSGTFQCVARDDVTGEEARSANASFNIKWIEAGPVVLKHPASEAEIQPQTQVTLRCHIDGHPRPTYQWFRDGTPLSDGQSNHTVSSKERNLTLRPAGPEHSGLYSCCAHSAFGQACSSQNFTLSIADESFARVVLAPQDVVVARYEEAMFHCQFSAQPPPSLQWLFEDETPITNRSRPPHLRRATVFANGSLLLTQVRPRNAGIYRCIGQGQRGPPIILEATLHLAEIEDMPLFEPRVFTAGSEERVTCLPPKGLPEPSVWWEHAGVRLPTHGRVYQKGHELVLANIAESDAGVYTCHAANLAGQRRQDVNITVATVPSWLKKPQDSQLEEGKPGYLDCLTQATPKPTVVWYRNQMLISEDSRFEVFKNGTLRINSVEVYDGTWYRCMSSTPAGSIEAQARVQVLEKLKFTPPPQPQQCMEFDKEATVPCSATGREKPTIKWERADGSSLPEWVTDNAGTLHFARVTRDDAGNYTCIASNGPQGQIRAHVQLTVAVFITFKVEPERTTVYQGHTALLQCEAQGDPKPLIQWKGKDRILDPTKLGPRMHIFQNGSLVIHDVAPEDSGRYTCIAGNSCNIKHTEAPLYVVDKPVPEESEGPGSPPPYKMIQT
# T2: human PTK7 on human cancer cell lines (human, UniProt Q13308 31-1070)
# T2 construct: Endogenous PTK7 of human tumour cell lines; also called PTK7 on A-431, NCI-H520, NCI-N87, SK-OV-3, BT-20, HCC1954, NCI-H226, NCI-H358, HCT116, PC-3, NCI-H292, NCI-H1975 cells
# T2 sequence: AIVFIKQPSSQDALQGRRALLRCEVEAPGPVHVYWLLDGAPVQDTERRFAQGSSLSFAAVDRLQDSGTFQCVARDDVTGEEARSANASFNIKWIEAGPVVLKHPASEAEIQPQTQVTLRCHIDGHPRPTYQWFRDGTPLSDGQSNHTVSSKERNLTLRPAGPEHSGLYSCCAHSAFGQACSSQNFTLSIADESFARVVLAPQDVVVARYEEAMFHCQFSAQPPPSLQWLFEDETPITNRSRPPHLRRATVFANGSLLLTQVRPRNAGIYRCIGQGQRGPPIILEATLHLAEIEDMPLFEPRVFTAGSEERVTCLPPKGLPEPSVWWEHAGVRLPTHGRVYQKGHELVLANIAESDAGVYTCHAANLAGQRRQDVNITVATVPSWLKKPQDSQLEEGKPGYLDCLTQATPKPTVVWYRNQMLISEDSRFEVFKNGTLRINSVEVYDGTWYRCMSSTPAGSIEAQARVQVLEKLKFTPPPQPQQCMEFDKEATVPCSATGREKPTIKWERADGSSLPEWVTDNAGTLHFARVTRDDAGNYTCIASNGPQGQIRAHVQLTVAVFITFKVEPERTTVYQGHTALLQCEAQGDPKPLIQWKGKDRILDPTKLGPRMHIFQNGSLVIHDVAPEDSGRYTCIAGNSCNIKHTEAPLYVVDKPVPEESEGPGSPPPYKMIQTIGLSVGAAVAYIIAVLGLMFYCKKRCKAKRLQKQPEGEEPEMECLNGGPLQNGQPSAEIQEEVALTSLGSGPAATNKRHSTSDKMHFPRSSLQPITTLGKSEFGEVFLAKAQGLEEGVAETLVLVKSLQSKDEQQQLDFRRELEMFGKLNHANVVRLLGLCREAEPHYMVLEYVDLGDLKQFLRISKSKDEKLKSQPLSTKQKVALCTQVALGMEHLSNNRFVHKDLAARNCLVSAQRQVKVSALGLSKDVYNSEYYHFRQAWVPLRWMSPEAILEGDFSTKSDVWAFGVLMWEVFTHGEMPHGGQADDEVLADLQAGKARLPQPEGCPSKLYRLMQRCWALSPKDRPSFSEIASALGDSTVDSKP
# B1: 3C4 (antibody, V domains shown)
# VH: QVQLEQSRAEVKKPGESLRISCKGSGYSFTSYWISWVRQMPGKGLEWMGRIDPSDSYTNYNPSFQGHVTISADKSISTAYLQWSSLKASDTAMYYCARRDGSYFDFDYWGQGTLVTVSS
# VL: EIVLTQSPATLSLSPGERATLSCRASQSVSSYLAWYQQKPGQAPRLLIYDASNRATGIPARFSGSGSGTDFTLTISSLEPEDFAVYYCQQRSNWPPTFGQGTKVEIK
# notes: also called anti-PTK7 antibody 3C4
# B2: 3E6 (antibody, V domains shown)
# VH: B1 VH with E5V, Q6E, R8G, K23R, N59K, N61S, S102D
# VL: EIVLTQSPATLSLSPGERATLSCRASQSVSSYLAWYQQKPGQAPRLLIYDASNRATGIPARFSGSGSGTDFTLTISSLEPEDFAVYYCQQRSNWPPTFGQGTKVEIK
# notes: also called anti-PTK7 antibody 3E6
# B3: 1F2 (antibody, V domains shown)
# VH: QVQLVQSGGGLVQPGGSLRLSCAASGFTFSRYEMNWVRQAPGKGLEWVSYINSIGSAINYADSVKGRFTISRDNAKNSLYLQMRSLRAEDTAVYYCVREDNWNPGYWGQGTLVTVSS
# VL: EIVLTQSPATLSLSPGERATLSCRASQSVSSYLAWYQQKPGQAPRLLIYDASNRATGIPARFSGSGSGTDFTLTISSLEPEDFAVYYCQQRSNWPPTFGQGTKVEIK
# notes: also called anti-PTK7 antibody 1F2
# B4: 1A7 (antibody, human IgG1, V domains shown)
# VH: QVQLVESGGGVVQPGRSLRLSCAASGFTFSNYGMHWVRQAPGKGLEWVAVIYYDGSNKFYADSVKGRFTISRDNSKNTLYLQMSSLRAEDTAVYYCARDVAPPGSRAEYFHHWGQGTLVTVSS
# VL: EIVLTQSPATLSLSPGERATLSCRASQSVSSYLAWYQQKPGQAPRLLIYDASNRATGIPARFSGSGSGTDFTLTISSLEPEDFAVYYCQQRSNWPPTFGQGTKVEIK
# notes: also called anti-PTK7 antibody 1A7
# B5: 2F5 (antibody, V domains shown)
# VH: B4 VH with A23V, V50I, F59Y, S84N, P102A, P103A, F110L
# VL: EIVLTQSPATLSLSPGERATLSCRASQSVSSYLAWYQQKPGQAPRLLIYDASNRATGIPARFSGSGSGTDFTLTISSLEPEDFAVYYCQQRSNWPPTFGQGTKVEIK
# notes: also called anti-PTK7 antibody 2F5
# B6: 2D11 (antibody, V domains shown)
# VH: B4 VH with N31S, Y52F, F59Y, S84N, A92S, P102A, H111Q, H112N
# VL: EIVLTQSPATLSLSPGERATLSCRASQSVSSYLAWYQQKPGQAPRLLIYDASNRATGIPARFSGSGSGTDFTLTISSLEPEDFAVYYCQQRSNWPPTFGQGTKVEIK
# notes: also called anti-PTK7 antibody 2D11
# B7: 2A5 (antibody, V domains shown)
# VH: B4 VH with E6Q, Y52W, S56R, F59Y, S84N, P103A, H111Q, H112N
# VL: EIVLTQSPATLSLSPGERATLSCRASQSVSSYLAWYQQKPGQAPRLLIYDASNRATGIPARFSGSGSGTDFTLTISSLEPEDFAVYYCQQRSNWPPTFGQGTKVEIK
# notes: also called anti-PTK7 antibody 2A5
# B8: 1A11 (antibody, V domains shown)
# VH: QVQLVQSGPGLVKPSETLSLTCTVSGGSINSYYWNWIRQPPGKGLEWIGYIYYSGSTNYNPSLKSRVTISVDTSKNQFSLKLSSVTAADTAVYYCARDPHDYIRGHFDLWGRGTLFTVSS
# VL: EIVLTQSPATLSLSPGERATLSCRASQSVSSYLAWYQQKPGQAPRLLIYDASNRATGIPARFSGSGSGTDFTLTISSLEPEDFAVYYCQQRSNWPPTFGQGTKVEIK
# notes: also called anti-PTK7 antibody 1A11
# Biological target: T1, His-tagged human PTK7 protein
# Experiment: BLI Octet binning on hPTK7-His; competitor 2D11
# Description: (§1) Relative positions of target protein epitope between a pair of purified anti-PTK7 antibodies were analyzed by Biolayer Interferometry (BLI) using ForteBio Octet system at 30° C. A total of […] purified antibodies were used: 1A7, 1A11, 1F2, 2A5, 2D11, 2F5, 3C4 and 3E6.
# (§2) 1×HBS-EP+ buffer (10 mM 4-(2-hydroxyethyl)-1-piperazineethanesulfonic acid (HEPES), 150 mM NaCl, 3 mM ethylenediaminetetraacetic acid (EDTA) and 0.05% P20, pH7.4) diluted from HBS-EP+ buffer (10×) was used as the running buffer throughout the experiment. His-tagged human PTK7 protein was captured at a flow rate of 10 μL/min, and 200 nM of antibody (Analyte 1) was injected at a flow rate of 30 μL/min to bind the ligand. Another antibody (Analyte 2) was injected under the same conditions to determine whether the binding of different antibodies interfered with each other. The binding time was 300 s for each antibody.
# (§3) The binding value of each antibody was obtained using Data Analysis HT 12.0. To quantify the interference of one antibody binding to another, a binding ratio was calculated to compare each pair of antibodies. The binding ratio is defined as the binding value of the second antibody (Analyte 2), divided by the binding value of the first antibody (Analyte 1). […] In general, antibody pairs that interfere with each other have the same or overlapping epitopes.
row,binding ratio,Binder
1,0.91,B1
2,0.76,B2
3,0.62,B3
4,0.1,B4
5,0.07,B5
6,0.15,B6
7,-0.07,B7
8,0.71,B8

# Biological target: T2, human PTK7 on human cancer cell lines
# Experiment: flow cytometry, NCI-H358 cells, Ab 5 ug/mL
# Description: (§4) The binding activity of anti-PTK7 antibodies to cancer cell lines was verified by flow cytometry. […] Purified anti-PTK7 antibody with a concentration of 5 μg/mL was added to each well and was incubated at 4° C. for 30 minutes. […] The cells were collected, and the mean fluorescence intensity (MFI) was determined. Human IgG1 was used as ISO control.
row,MFI,Binder
1,98800,B1
2,117000,B2
3,33900,B3
4,52900,B4
5,51900,B5
6,103000,B6
7,87700,B7
8,89400,B8

# Biological target: T2, human PTK7 on human cancer cell lines
# Experiment: flow cytometry, NCI-H292 cells, Ab 5 ug/mL
# Description: as §4
row,MFI,Binder
1,92400,B1
2,141000,B2
3,69300,B3
4,43500,B4
5,44500,B5
6,134000,B6
7,92000,B7
8,125000,B8

# Biological target: T1, His-tagged human PTK7 protein
# Experiment: BLI Octet binning on hPTK7-His; competitor 3E6
# Description: as §1, §2, §3
row,binding ratio,Binder
1,0.17,B1
2,0.08,B2
3,0.75,B3
4,1.05,B4
5,1.02,B5
6,1.18,B6
7,0.94,B7
8,0.94,B8

# Biological target: T2, human PTK7 on human cancer cell lines
# Experiment: flow cytometry, HCC1954 cells, Ab 5 ug/mL
# Description: as §4
row,MFI,Binder
1,187000,B1
2,207000,B2
3,99100,B3
4,118000,B4
5,121000,B5
6,211000,B6
7,179000,B7
8,172000,B8

# Biological target: T2, human PTK7 on human cancer cell lines
# Experiment: flow cytometry, NCI-N87 cells, Ab 5 ug/mL
# Description: as §4
row,MFI,Binder
1,139000,B1
2,180000,B2
3,108000,B3
4,75700,B4
5,69400,B5
6,217000,B6
7,152000,B7
8,158000,B8

# Biological target: T2, human PTK7 on human cancer cell lines
# Experiment: flow cytometry, NCI-H520 cells, Ab 5 ug/mL
# Description: as §4
row,MFI,Binder
1,282000,B1
2,310000,B2
3,216000,B3
4,190000,B4
5,199000,B5
6,312000,B6
7,283000,B7
8,296000,B8
